From patent US20260275317A1, “CHIMERIC ENDOLYSINS WITH ACTIVITY AGAINST STREPTOCOCCI AND STAPHYLOCOCCI” (UNIVERSITEIT GENT, priority 2023, published 2026) come the findings set out here.

Assay [1] deals with S. agalactiae. Put plainly: Turbidity reduction assay (TRA), S. agalactiae. It counts as cell-based, Streptococcus agalactiae. The method, then: (§1) Concerning the time killing assay, an overnight bacterial culture was diluted 1:10 for S. uberis, S. agalactiae-& dysgalactiae or 1:100 for S. aureus in PBS or UHT-pasteurized whole cow's milk. A volume of 10 μL thereof was combined with an equal amount of chimeric endolysin in PBS (or only PBS as negative control) in triplicate and incubated in a covered 96-well microtiter plate at 37° C. for 2 h. The dose was low (i.e. 0.25 μM), but this was chosen to differentiate between less and better performing variants, consequently allowing a ranking. Finally, these fractions were serially diluted 1:10 in PBS. 5 μL of each fraction was spotted on TSA or BHI-agar and incubated overnight at 37° C. The following day, colony forming units (CFU) were counted and converted to CFU/mL to calculate logarithmic reductions in comparison with the negative control. The relative scores were calculated by dividing the observed logarithmic reduction for each endolysin by the maximal reduction observed for that specific condition and strain. Next, this value was divided by the number of conditions and strains tested (i.e., 8=4 bacterial strains×2 conditions (PBS/UHT-milk)). As such, the best performing candidate in each individual assay received a score of 0.125 (=(1/1)/8). […] Turbidity reduction assays were performed by combining 100 μL of overnight grown bacterial cells with an equal volume of purified enzyme at the desired concentration. Bacterial cells were washed with PBS and resuspended in a 1:1 ratio with enzyme to an OD600 of approximately 1.0. Next, the OD600 was measured using a Tecan infinite 200 PRO plate reader (Tecan, Switzerland) every 15 seconds at 37° C., shaking the 96-well plate between each measurement.
(§2) Time killing and turbidity reduction assays were performed as previously described in 1.3.1.

Assay [2] deals with S. agalactiae. The assay can be described thus: Time killing assay (TKA), S. agalactiae. It counts as cell-based, Streptococcus agalactiae. Particulars: 0.3 μM. The method, then:
as §1, with “A volume of 10 μL thereof was combined with an equal amount of chimeric endolysin in PBS (or only PBS as negative control) in triplicate and incubated in a covered 96-well microtiter plate at 37° C. for 2 h. The dose was low (i.e. 0.25 μM), but this was chosen to differentiate between less and better performing variants, consequently allowing a ranking.” left out
as §2
Time killing assays were performed as previously described in 1.3.1.

In the next assay the test system is S. dysgalactiae. The assay can be described thus: Turbidity reduction assay (TRA), S. dysgalactiae. It counts as cell-based, Streptococcus dysgalactiae. The procedure:
as §1, §2

B1: NC5: chimeric endolysin SEQ ID NO: 17; HIV-1 TAT + PlySs2 CHAP + Ply1081 CW_7 + PlySs9 amidase_3 (protein)
chain: MYGRKKRRQRRRGATTVNEALNNVRAQVGSGVSVGNGECYALASWYERMISPDATVGLGAGVGWVSGAIGDTISAKNIGSSYNWQANGWTVSTSGPFKAGQIVTLGATPGNPYGHVVIVEAVDGDRLTILEQNYGGKRYPVRNYYSAASYRQQVVHYITPPGTVAQSAPNLAGAGIDQLVQETLAGKYGNGEQRKAALGSQYQAVMAVINGKATAPKKTVDQLAQEVIQGKHGNGEDRKKSLGPDYDAVQKRVTEILKGSPSGNIPKTPSDAPKSEVVNSSTEPKTEETGANGKATDTKITKGSGKHLVICGHGQGRTGYDPGAVNAKLGITEAGKVRELSKLMSKYSGQQIDFITEQNVYDYRSITSIGKGYDSITELHFNAFNGSAKGTEVLIQSSLEADKEDMAILSLLSRYFQNRGIKKVDWLYNANQAASRGYTYRLVEIAFIDNEQDMAIFENKKEDIAKGLVSAITGVEVKTIVPSPPSSTVGSSGTPSKSIYLVGDSLRVLPHATHYQTGQKIANWVKGRTYKILQVKNVHQSNSKRAYLLDGIKSWVLEQDVEGTTKGHSKYHHHHHH
In the case of B1, the “lysis speed (ΔOD600/min)/μM” value is on record as 0.15 (ΔOD600/min)/μM in the assay on S. agalactiae [1] (S. agalactiae 1, 0.3 μM); 0.08 (ΔOD600/min)/μM in the assay on S. agalactiae [1] (S. agalactiae 2, 0.3 μM); 0.12 (ΔOD600/min)/μM with S. agalactiae [1] (S. agalactiae 3, 0.3 μM); 0.25 (ΔOD600/min)/μM in the assay with S. dysgalactiae (S. dysgalactiae 1, 0.3 μM); 0.30 (ΔOD600/min)/μM with S. dysgalactiae (S. dysgalactiae 2, 0.3 μM); 0.25 (ΔOD600/min)/μM with S. dysgalactiae (S. dysgalactiae 3, 0.3 μM). In addition, the ΔOD600 with S. agalactiae [1] (S. agalactiae 1, 1 h, 0.3 μM) amounted to 0.42; with S. agalactiae [1] (S. agalactiae 2, 1 h, 0.3 μM), 0.39; with S. agalactiae [1] (S. agalactiae 3, 1 h, 0.3 μM) it was 0.41; with S. dysgalactiae (S. dysgalactiae 1, 1 h, 0.3 μM), 0.48; in the assay on S. dysgalactiae (S. dysgalactiae 2, 1 h, 0.3 μM) it was 0.66; in the assay with S. dysgalactiae (S. dysgalactiae 3, 1 h, 0.3 μM), 0.51. The “ΔOD600, reductions up to” value in the assay with S. agalactiae [1] (three clinical S. agalactiae isolates, 0.3 μM) is “up to 0.39±0.02”. The “ΔLog10 (CFU/mL)” value with S. agalactiae [2] (S. agalactiae 1, 1 h) is recorded as 1.49 Log10 (CFU/mL); with S. agalactiae [2] (S. agalactiae 2, 1 h) it was 1.50 Log10 (CFU/mL); with S. agalactiae [2] (S. agalactiae 3, 1 h), 0.00 Log10 (CFU/mL). Further, the log10 reduction in the assay with S. agalactiae [2] (mastitis-derived S. agalactiae, versus PBS) is recorded as 1.50±0.12 log10. Moreover, the “Δ log10, reductions up to” value in the assay on S. agalactiae [2] (three clinical S. agalactiae isolates) is on record as at most 1.50±0.02 log10. Also, the “ΔOD, reductions up to” value with S. dysgalactiae (three clinical S. dysgalactiae isolates, 0.3 μM) was at most 0.48±0.03.
